T1: chimeric Leptin (Hu)-EPO (Mu) receptor presented by the 32D OBECA cell line (human; murine, UniProt P48357 22-839; P14753 250-507)
T1 sequence (looked up): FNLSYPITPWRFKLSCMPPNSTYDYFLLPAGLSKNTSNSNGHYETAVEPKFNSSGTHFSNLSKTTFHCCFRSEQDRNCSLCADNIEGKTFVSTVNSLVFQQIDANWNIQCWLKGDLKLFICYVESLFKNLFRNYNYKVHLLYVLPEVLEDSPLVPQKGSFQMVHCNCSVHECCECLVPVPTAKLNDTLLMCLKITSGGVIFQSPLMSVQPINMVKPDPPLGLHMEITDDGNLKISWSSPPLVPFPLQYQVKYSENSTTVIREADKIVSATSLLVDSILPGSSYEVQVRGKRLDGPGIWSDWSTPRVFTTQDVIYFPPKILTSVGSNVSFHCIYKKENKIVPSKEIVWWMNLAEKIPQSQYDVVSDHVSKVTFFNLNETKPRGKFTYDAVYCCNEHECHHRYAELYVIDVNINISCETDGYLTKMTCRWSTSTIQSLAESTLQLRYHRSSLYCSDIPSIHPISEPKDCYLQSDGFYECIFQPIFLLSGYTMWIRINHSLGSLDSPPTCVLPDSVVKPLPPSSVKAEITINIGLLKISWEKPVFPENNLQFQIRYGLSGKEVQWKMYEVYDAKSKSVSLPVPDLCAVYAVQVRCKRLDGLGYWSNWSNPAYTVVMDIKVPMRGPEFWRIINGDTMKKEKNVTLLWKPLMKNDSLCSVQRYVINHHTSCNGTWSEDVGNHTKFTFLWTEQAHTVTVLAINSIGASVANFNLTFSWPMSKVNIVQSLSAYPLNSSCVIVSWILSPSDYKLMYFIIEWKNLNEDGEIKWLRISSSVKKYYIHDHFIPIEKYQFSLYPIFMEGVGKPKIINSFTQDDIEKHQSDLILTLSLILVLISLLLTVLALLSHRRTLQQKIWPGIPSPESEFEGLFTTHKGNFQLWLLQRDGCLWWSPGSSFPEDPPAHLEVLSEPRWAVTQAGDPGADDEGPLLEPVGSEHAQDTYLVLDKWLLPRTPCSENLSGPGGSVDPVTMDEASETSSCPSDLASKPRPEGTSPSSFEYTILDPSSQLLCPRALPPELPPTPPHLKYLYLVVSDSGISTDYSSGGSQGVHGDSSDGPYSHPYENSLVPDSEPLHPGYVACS

B1: Seal leptin with N-terminal methionine, and with amino acids 23-49 replaced with amino acids 25-51 (AB loop) of metreleptin (ligand)
chain: MPIQRVQDDTKTLIKTIITRINDISHTQSVSSKQKVTGLDFIPGLHPILTLSGMDQILATYQQILTSLQSRSVVQIANDLANLRALLRLLASAKSCPVPRARGSDTIKGLGNVLRASVHSTEVVALSRLKAALQDMLRQLDRNPGC
notes: Seal-human chimeric leptin; also called Compound 46
B2: Seal leptin with N-terminal methionine, and with amino acids 71-92 replaced with amino acids 73-94 (helix 3) of metreleptin, and with amino acids 23-49 … (ligand)
chain: MPIQRVQDDTKTLIKTIITRINDISHTQSVSSKQKVTGLDFIPGLHPILTLSGMDQILATYQQILTSLQSRNVIQISNDLENLRDLLHVLAFSKSCPVPRARGSDTIKGLGNVLRASVHSTEVVALSRLKAALQDMLRQLDRNPGC
notes: Seal-human chimeric leptin; also called Compound 51
B3: Seal leptin with N-terminal methionine, with amino acids 23-49 replaced with amino acids 25-51 (AB loop) of metreleptin, and with amino acids 120-141 replaced … (ligand)
chain: MPIQRVQDDTKTLIKTIITRINDISHTQSVSSKQKVTGLDFIPGLHPILTLSGMDQILATYQQILTSLQSRSVVQIANDLANLRALLRLLASAKSCPVPRARGSDTIKGLGNVLRASVHSTEVVALSRLQGSLQDMLWQLDLNPGC
notes: Seal-human chimeric leptin; also called Compound 40
B4: Seal leptin with N-terminal methionine, and with amino acids 71-92 replaced with amino acids 73-94 (helix 3) of metreleptin (ligand)
chain: MPIQRVQDDTKTLIKTIITRINDISPPQGVCSRPRVAGLDFIPRVQSVRTLSGMDQILATYQQILTSLQSRNVIQISNDLENLRDLLHVLAFSKSCPVPRARGSDTIKGLGNVLRASVHSTEVVALSRLKAALQDMLRQLDRNPGC
notes: Seal-human chimeric leptin; also called Compound 41; Cmpd 41
B5: Seal leptin with N-terminal methionine, and with amino acids 50-65 replaced with amino acids 52-67 (helix 2) of metreleptin (ligand)
chain: MPIQRVQDDTKTLIKTIITRINDISPPQGVCSRPRVAGLDFIPRVQSVRTLSKMDQTLAVYQQILTSLQSRSVVQIANDLANLRALLRLLASAKSCPVPRARGSDTIKGLGNVLRASVHSTEVVALSRLKAALQDMLRQLDRNPGC
notes: Seal-human chimeric leptin; also called Compound 43
B6: Seal leptin with N-terminal methionine, and with amino acids 3-22 replaced with amino acids 5-24 (helix 1) of metreleptin, and amino acids 72-93 replaced with … (ligand)
chain: MPIQKVQDDTKTLIKTIVTRINDISPPQGVCSRPRVAGLDFIPRVQSVRTLSGMDQILATYQQILTSLQSRNVIQISNDLENLRDLLHVLAFSKSCPVPRARGSDTIKGLGNVLRASVHSTEVVALSRLKAALQDMLRQLDRNPGC
notes: Seal-human chimeric leptin; also called Compound 45
B7: Seal leptin with N-terminal methionine, and with amino acids 30 and 71-92 replaced with amino acids 32 and 73-94 (helix 3) of metreleptin (ligand)
chain: MPIQRVQDDTKTLIKTIITRINDISPPQGVSSRPRVAGLDFIPRVQSVRTLSGMDQILATYQQILTSLQSRNVIQISNDLENLRDLLHVLAFSKSCPVPRARGSDTIKGLGNVLRASVHSTEVVALSRLKAALQDMLRQLDRNPGC
notes: Seal-human chimeric leptin; also called Compound 48; Cmpd 48
B8: Seal leptin with N-terminal methionine, and with amino acids 93-119 replaced with amino acids 95-121 (loop 3-4) of metreleptin (ligand)
chain: MPIQRVQDDTKTLIKTIITRINDISPPQGVCSRPRVAGLDFIPRVQSVRTLSGMDQILATYQQILTSLQSRSVVQIANDLANLRALLRLLASAKSCHLPWASGLETLDSLGGVLEASGYSTEVVALSRLKAALQDMLRQLDRNPGC
notes: Seal-human chimeric leptin; also called Compound 42; Cmpd 42
B9: Seal leptin with N-terminal methionine, and with amino acids 30 and 93-119 replaced with amino acids 32 and 95-121 (loop 3-4) of metreleptin (ligand)
chain: MPIQRVQDDTKTLIKTIITRINDISPPQGVSSRPRVAGLDFIPRVQSVRTLSGMDQILATYQQILTSLQSRSVVQIANDLANLRALLRLLASAKSCHLPWASGLETLDSLGGVLEASGYSTEVVALSRLKAALQDMLRQLDRNPGC
notes: Seal-human chimeric leptin; also called Compound 49; Cmpd 49
B10: Seal leptin with N-terminal methionine, with amino acids 71-92 replaced with amino acids 73-94 (helix 3) of metreleptin, and with amino acids 93-119 replaced … (ligand)
chain: MPIQRVQDDTKTLIKTIITRINDISPPQGVCSRPRVAGLDFIPRVQSVRTLSGMDQILATYQQILTSLQSRNVIQISNDLENLRDLLHVLAFSKSCHLPWASGLETLDSLGGVLEASGYSTEVVALSRLKAALQDMLRQLDRNPGC
notes: Seal-human chimeric leptin; also called Compound 50
B11: Seal leptin (ligand)
chain: PIQRVQDDTKTLIKTIITRINDISPPQGVCSRPRVAGLDFIPRVQSVRTLSGMDQILATYQQILTSLQSRSVVQIANDLANLRALLRLLASAKSCPVPRARGSDTIKGLGNVLRASVHSTEVVALSRLKAALQDMLRQLDRNPGC
notes: also called Compound 38; Cmpd 38
B12: Seal leptin with N-terminal methionine, with amino acids 23-49 replaced with amino acids 25-51 (AB loop) of metreleptin, and with amino acids 93-119 replaced … (ligand)
chain: MPIQRVQDDTKTLIKTIITRINDISHTQSVSSKQKVTGLDFIPGLHPILTLSGMDQILATYQQILTSLQSRSVVQIANDLANLRALLRLLASAKSCHLPWASGLETLDSLGGVLEASGYSTEVVALSRLKAALQDMLRQLDRNPGC
notes: Seal-human chimeric leptin; also called Compound 47
B13: Seal leptin with N-terminal methionine, with amino acids 23-49 replaced with amino acids 25-51 (AB loop) of metreleptin, with amino acids 93-119 replaced with … (ligand)
chain: MPIQRVQDDTKTLIKTIITRINDISHTQSVSSKQKVTGLDFIPGLHPILTLSGMDQILATYQQILTSLQSRNVIQISNDLENLRDLLHVLAFSKSCHLPWASGLETLDSLGGVLEASGYSTEVVALSRLKAALQDMLRQLDRNPGC
B14: Seal leptin with N-terminal methionine, and with amino acids 3-22 replaced with amino acids 5-24 (helix 1) of metreleptin (ligand)
chain: MPIQKVQDDTKTLIKTIVTRINDISPPQGVCSRPRVAGLDFIPRVQSVRTLSGMDQILATYQQILTSLQSRSVVQIANDLANLRALLRLLASAKSCPVPRARGSDTIKGLGNVLRASVHSTEVVALSRLKAALQDMLRQLDRNPGC
B15: Seal leptin with N-terminal methionine, and with amino acids 120-141 replaced with amino acids 122-143 (helix 4) of metreleptin (ligand)
chain: MPIQRVQDDTKTLIKTIITRINDISPPQGVCSRPRVAGLDFIPRVQSVRTLSGMDQILATYQQILTSLQSRSVVQIANDLANLRALLRLLASAKSCPVPRARGSDTIKGLGNVLRASVHSTEVVALSRLQGSLQDMLWQLDLNPGC
notes: Seal-human chimeric leptin; also called Compound 44

What was measured:
[1] = target: T1, chimeric Leptin (Hu)-EPO (Mu) receptor …; test: cell-based or functional assay
[2] = target: T1, chimeric Leptin (Hu)-EPO (Mu) receptor …; test: Obeca cell binding: displacement of 125I-murine leptin from 32D OBECA cell membranes

Binder | EC50 (Obeca Stat 5 functional assay) [1] [pM] | IC50 [2] [pM]
B1 | 42 | 479
B2 | 38 | 119
B3 | 588 | 2410
B4 | 28 | 555
B5 | 54 | 3080
B6 | 29 | 527
B7 | 39 | 36
B8 | 43 | 2020
B9 | 34 | 105
B10 | 22 | 214
B11 | 19 | 2000
B12 | 62.5 | 788
B13 | 44 | –
B14 | 95 | –
B15 | 32 | 3540
